Test results as given in paper PMC7890063, “Bioinformatics-aided identification, characterization and applications of mushroom linalool synthases” (Communications Biology, 2021).

Experiments:
Sc.LNS = molecular target: T1, Sc.LNS (Streptomyces clavuligerus, UniProt D5SL78); test: product formation in E. coli, GC-MS; assay type: cell-based; settings: E. coli with mevalonate pathway; product nerolidol
T1 construct: gene SCLAV_p1185; codon-optimised gene in pET-11a, expressed in E. coli with mevalonate pathway, not purified
T1 sequence (D5SL78 1-329): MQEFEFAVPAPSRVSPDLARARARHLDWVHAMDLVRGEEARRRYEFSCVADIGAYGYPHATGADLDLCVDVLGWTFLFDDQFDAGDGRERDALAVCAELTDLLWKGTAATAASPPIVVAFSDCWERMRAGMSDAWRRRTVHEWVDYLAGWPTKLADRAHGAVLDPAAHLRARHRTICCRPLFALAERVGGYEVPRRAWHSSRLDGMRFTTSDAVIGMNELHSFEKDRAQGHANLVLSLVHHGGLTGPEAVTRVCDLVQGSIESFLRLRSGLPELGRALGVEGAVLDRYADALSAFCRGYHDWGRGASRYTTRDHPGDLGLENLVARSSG

Ap.LS (Agrped1_689675) = test: PPi release, EnzChek pyrophosphate assay; assay type: biochemical, Agrocybe pediades; settings: 37 °C, 1 h; enzyme 71.2% pure; product (R)-linalool; read-out: Monoterpene synthase
From the text: PPi release, EnzChek pyrophosphate assay on Ap.LS (Agrped1_689675)

[1] = substrate: CC(C)=CCC/C(C)=C/CC/C(C)=C/CO[P@@](=O)(O)OP(=O)(O)O; test: PPi release, EnzChek pyrophosphate assay; assay type: biochemical, Cyclocybe aegerita; settings: 37 °C, 1 h, enzyme 16.3% pure, product nerolidol
From the text: (§1) PPi release, EnzChek pyrophosphate assay on Aa.LNS (AAE3_109435)

[2] = substrate: CC(C)=CCC/C(C)=C/COP(=O)(O)OP(=O)(O)O; test: PPi release, EnzChek pyrophosphate assay; assay type: biochemical, Cyclocybe aegerita; settings: 37 °C, 1 h, enzyme 16.3% pure, product (R)-linalool
From the text: as §1

Question: Which “product formation in E. coli, GC-MS” value (Sc.LNS) does the source give for CC(C)=CCC/C(C)=C/CC/C(C)=C/COP(=O)(O)OP(=O)(O)O [(E,E)-FPP] here?
Answer: Sc.LNS produced a larger amount of nerolidol than linalool in E. coli

Question: For CC(C)=CCC/C(C)=C/COP(=O)(O)OP(=O)(O)O [GPP], which Km (Ap.LS (Agrped1_689675)) is on record?
Answer: 3.8 ± 0.7 µM

B1: Aa.LNS (AAE3_109435) (Cyclocybe aegerita) (protein)
chain: MHSSTQLFTHSPTKMQIILPDLLCSWGYKGFLNPHYEGAKAESNTWIRPLVVKLFDERGQKAFAKDYTGLLASMTYPHHNKEFLCVACDMMNLFFVYDEYTDITPPETAQRLAKIVVNAMRNPDEIAALGEDSIGTMTKQFWRRAMTLLPPNGCNSESCIQHFIDYTEEYLTAVTREACDRSSGSVHAVKDYLAMRRATSGAGLMVGLLEFGLDLPEEVMKHEVIQELSTGAIDMYCLLNDMHSYASELSSGQASHNVITVVMHERNLSLQEAFDWLASYAAGVVKGFKTNLNRVPSFSELEDHSLHGEGMLRDRIQRYIDGLGQAVRAEDDWAFETTRYHGQNGPQIKLTRMLTIRPQVKDNYAKQAPRVEAPERPMLLEVRS
Question: Which results are given for B1?
Answer: Km [1]: 9.0 ± 2.3 µM; kcat [1]: 0.055 ± 0.005 s⁻¹; kcat/Km [1]: 6670 M⁻¹ s⁻¹; Km [2]: 6.7 ± 4.6 µM; kcat [2]: 0.00833 ± 0.00167 s⁻¹; kcat/Km [2]: 1670 M⁻¹ s⁻¹
